Source: IntAct's records for PubMed 22791719

B1: Phospholipid-transporting ATPase accessory subunit LEM3 (Saccharomyces cerevisiae), P42838 (parent)
chain: MVNFDLGQVGEVFRRKDKGAIVSGDNPEEEEDVDASEFEEDEVKPVRTKNRRPKEDAFTQQRLAAINPVLTPRTVLPLYLLIAVVFVIVGGCILAQNSKVDEVTIYYQDCMTNATSSWSDIPSEHWQFVFHKYKTYNTAPQWRFVDDESDDFTKQRGTCQIRFTTPSDMKNNVYLNYVLEKFAANHRRYVLSFSEDQIRGEDASYETVHDATGINCKPLSKNADGKIYYPCGLIANSMFNDTFPLQLTNVGDTSNNYSLTNKGINWESDKKRYKKTKYNYTQIAPPPYWEKMYPDGYNETNIPDIQDWEEFQNWMRPGAFDKITKLIRINKNDTLPAGEYQLDIGLHWPVLEFNGKKGIYLTHGSHLGGRNPFLGIVYLIGGCICAAMALILLTFWLFGGRKIADASSLSWNMK
B2: Phospholipid-transporting ATPase DRS2 (Saccharomyces cerevisiae), P39524 (parent)
chain: MNDDRETPPKRKPGEDDTLFDIDFLDDTTSHSGSRSKVTNSHANANYIPPSHVLPEETIDLDADDDNIENDVHENLFMSNNHDDQTSWNANRFDSDAYQPQSLRAVKPPGLFARFGNGLKNAFTFKRKKGPESFEMNHYNAVTNNELDDNYLDSRNKFNIKILFNRYILRKNVGDAEGNGEPRVIHINDSLANSSFGYSDNHISTTKYNFATFLPKFLFQEFSKYANLFFLCTSAIQQVPHVSPTNRYTTIGTLLVVLIVSAMKECIEDIKRANSDKELNNSTAEIFSEAHDDFVEKRWIDIRVGDIIRVKSEEPIPADTIILSSSEPEGLCYIETANLDGETNLKIKQSRVETAKFIDVKTLKNMNGKVVSEQPNSSLYTYEGTMTLNDRQIPLSPDQMILRGATLRNTAWIFGLVIFTGHETKLLRNATATPIKRTAVEKIINRQIIALFTVLIVLILISSIGNVIMSTADAKHLSYLYLEGTNKAGLFFKDFLTFWILFSNLVPISLFVTVELIKYYQAFMIGSDLDLYYEKTDTPTVVRTSSLVEELGQIEYIFSDKTGTLTRNIMEFKSCSIAGHCYIDKIPEDKTATVEDGIEVGYRKFDDLKKKLNDPSDEDSPIINDFLTLLATCHTVIPEFQSDGSIKYQAASPDEGALVQGGADLGYKFIIRKPNSVTVLLEETGEEKEYQLLNICEFNSTRKRMSAIFRFPDGSIKLFCKGADTVILERLDDEANQYVEATMRHLEDYASEGLRTLCLAMRDISEGEYEEWNSIYNEAATTLDNRAEKLDEAANLIEKNLILIGATAIEDKLQDGVPETIHTLQEAGIKIWVLTGDRQETAINIGMSCRLLSEDMNLLIINEETRDDTERNLLEKINALNEHQLSTHDMNTLALVIDGKSLGFALEPELEDYLLTVAKLCKAVICCRVSPLQKALVVKMVKRKSSSLLLAIGDGANDVSMIQAAHVGVGISGMEGMQAARSADIAVGQFKFLKKLLLVHGSWSYQRISVAILYSFYKNTALYMTQFWYVFANAFSGQSIMESWTMSFYNLFFTVWPPFVIGVFDQFVSSRLLERYPQLYKLGQKGQFFSVYIFWGWIINGFFHSAIVFIGTILIYRYGFALNMHGELADHWSWGVTVYTTSVIIVLGKAALVTNQWTKFTLIAIPGSLLFWLIFFPIYASIFPHANISREYYGVVKHTYGSGVFWLTLIVLPIFALVRDFLWKYYKRMYEPETYHVIQEMQKYNISDSRPHVQQFQNAIRKVRQVQRMKKQRGFAFSQAEEGGQEKIVRMYDTTQKRGKYGELQDASANPFNDNNGLGSNDFESAEPFIENPFADGNQNSNRFSSSRDDISFDI
partner: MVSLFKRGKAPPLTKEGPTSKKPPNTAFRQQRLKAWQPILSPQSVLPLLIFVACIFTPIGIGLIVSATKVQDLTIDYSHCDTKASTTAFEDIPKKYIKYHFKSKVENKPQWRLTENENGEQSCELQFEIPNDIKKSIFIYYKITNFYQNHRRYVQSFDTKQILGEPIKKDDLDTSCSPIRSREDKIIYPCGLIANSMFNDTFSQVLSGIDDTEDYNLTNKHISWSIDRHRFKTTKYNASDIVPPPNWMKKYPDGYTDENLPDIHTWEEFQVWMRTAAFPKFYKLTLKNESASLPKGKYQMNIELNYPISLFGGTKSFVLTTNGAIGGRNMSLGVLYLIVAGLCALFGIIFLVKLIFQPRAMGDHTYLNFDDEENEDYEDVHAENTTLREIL
B3: Phospholipid-transporting ATPase accessory subunit CDC50 (Saccharomyces cerevisiae), P25656 (parent)
chain: B2 partner
partner: B2 chain
B4: Phospholipid-transporting ATPase accessory subunit CRF1 (Saccharomyces cerevisiae), P53740 (parent)
chain: MGLILRWKEKKQLSSKQNAQKSRKPANTSFRQQRLKAWQPILSPQSVLPLLILMACVFAPIGIGLVVSTISVQRLVVNYTECDALAPAKHFETIPSEYVDYHFSKKVAVQPQWMVLTDPELGNQTCRIQFEVPNHIKKSTYVYYRLTNFNQNYREYVQSLDLDQLKGKALIGNDLDPNCDPLRTVENKTIFPCGLIANSMFNDTFGTTLTGVNDTADYLLTTKGIAWDTDSHRYGKTEYNASDIVPPPNWAKLFPNGYTDDNIPDLQNWEQFKIWMRTAALPNFYKLAMKNETNGLGKGIYIADIELNYPVRSFYGTKSFVLTTNSIIGAGNEALGIVYLIVAGIATLFAILFLIKVIFKPRPMHDHSYLNFENSDTPFDESSVVSIPLREIL

Variants of: B1
Conditions: with atc5_yeast DNF1, P32660
Chain of atc5_yeast DNF1, P32660 (P32660 whole entry): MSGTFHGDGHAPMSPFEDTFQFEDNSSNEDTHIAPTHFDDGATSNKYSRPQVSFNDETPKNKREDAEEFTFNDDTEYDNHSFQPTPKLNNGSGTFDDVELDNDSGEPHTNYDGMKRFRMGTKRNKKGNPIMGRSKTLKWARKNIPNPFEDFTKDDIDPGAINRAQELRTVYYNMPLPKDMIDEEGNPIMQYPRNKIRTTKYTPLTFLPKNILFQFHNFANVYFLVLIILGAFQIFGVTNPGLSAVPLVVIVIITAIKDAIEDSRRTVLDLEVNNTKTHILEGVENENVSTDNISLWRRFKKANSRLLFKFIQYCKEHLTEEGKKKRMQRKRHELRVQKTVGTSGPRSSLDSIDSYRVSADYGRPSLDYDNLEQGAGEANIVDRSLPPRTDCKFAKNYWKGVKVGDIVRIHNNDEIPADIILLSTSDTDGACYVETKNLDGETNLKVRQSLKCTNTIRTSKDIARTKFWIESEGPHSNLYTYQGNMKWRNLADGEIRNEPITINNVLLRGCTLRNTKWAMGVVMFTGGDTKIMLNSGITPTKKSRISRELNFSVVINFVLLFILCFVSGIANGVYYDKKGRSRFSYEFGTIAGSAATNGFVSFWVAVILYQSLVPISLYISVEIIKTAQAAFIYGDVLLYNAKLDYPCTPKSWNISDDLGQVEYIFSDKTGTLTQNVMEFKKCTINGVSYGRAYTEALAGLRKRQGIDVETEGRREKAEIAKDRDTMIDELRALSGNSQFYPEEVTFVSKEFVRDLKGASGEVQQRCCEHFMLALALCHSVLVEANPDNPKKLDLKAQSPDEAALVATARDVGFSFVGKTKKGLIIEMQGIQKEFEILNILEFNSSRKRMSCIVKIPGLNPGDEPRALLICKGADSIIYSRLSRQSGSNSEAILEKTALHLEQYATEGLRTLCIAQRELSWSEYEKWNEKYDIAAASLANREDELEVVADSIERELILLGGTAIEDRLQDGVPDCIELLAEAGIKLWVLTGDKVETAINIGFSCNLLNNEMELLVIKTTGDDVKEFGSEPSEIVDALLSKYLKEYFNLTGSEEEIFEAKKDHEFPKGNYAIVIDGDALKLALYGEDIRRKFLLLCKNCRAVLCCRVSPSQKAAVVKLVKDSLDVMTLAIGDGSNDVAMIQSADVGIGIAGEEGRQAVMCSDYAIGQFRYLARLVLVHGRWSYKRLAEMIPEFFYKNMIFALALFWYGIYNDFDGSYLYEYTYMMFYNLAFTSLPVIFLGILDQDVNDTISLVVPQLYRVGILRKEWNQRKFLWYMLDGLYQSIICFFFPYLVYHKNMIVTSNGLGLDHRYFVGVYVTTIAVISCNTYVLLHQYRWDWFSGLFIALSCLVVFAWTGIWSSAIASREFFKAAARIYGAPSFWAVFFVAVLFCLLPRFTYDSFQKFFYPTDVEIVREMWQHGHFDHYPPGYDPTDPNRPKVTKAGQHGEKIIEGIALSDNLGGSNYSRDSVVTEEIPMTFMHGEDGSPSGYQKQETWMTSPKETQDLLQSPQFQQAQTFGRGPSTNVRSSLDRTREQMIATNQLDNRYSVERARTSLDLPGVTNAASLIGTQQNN

| Variant | effect of a mutation on the interaction |
| --- | --- |
| MVNFDLGQVGEVFRRKDKGAIVSGDNPEEEEDVDASEFEEDEVKPVRTKNRRPKEDAFTQQRLAVINPVLTPRTVLPLYLLIAVVFVIVGGCILAQNSKVDEVTIYYQDCMTNATSSWSDIPSEHWQFVFHKYKTYNTAPQWRFVDDESDDFTKQRGTCQIRFTTPSDMKNNVYLNYVLEKFAANHRRYVLSFSEDQIRGEDASYETVHDATGINCKPLSKNADGKIYYPCGLIANSMFNDTFPLQLTNVGDTSNNYSLTNKGINWESDKKRYKKTKYNYTQIAPPPYWEKMYPDGYNETNIPDIQDWEEFQNWMRPGAFDKITKLIRINKNDTLPAGEYQLDIGLHWPVLEFNGKKGIYLTHGSHLGGRNPFLGIVYLIGGCICAAMALILLTFWLFGGRKIADASSLSWNMK [A65V] | decreasing interaction strength |

Variants of: B2
Conditions: with cdc50_yeast CDC50, P25656

| Variant | effect of a mutation on the interaction |
| --- | --- |
| E342Q | with no effect |
| D560N | disrupting interaction strength |
| G341L | disrupting interaction strength |

Variants of: B3
Conditions: with atc3_yeast DRS2, P39524

| Variant | effect of a mutation on the interaction |
| --- | --- |
| MVSLFKRGKAPPLTKEGPTSKKPPNTAFRQQRLKAWQPILSPQSVLPLLIFVACIFTPIGIGLIVSATKVQDLTIDYSHADTKASTTAFEDIPKKYIKYHFKSKVENKPQWRLTENENGEQSCELQFEIPNDIKKSIFIYYKITNFYQNHRRYVQSFDTKQILGEPIKKDDLDTSCSPIRSREDKIIYPCGLIANSMFNDTFSQVLSGIDDTEDYNLTNKHISWSIDRHRFKTTKYNASDIVPPPNWMKKYPDGYTDENLPDIHTWEEFQVWMRTAAFPKFYKLTLKNESASLPKGKYQMNIELNYPISLFGGTKSFVLTTNGAIGGRNMSLGVLYLIVAGLCALFGIIFLVKLIFQPRAMGDHTYLNFDDEENEDYEDVHAENTTLREIL [C80A] | disrupting interaction strength |
| MVSLFKRGKAPPLTKEGPTSKKPPNTAFRQQRLKAWQPILSPQSVLPLLIFVACIFTPIGIGLIVSATKVQDLTIDYSHCDTKASTTAFEDIPKKYIKYHFKSKVENKPQWRLTENENGEQSAELQFEIPNDIKKSIFIYYKITNFYQNHRRYVQSFDTKQILGEPIKKDDLDTSCSPIRSREDKIIYPCGLIANSMFNDTFSQVLSGIDDTEDYNLTNKHISWSIDRHRFKTTKYNASDIVPPPNWMKKYPDGYTDENLPDIHTWEEFQVWMRTAAFPKFYKLTLKNESASLPKGKYQMNIELNYPISLFGGTKSFVLTTNGAIGGRNMSLGVLYLIVAGLCALFGIIFLVKLIFQPRAMGDHTYLNFDDEENEDYEDVHAENTTLREIL [C123A] | disrupting interaction strength |
| MVSLFKRGKAPPLTKEGPTSKKPPNTAFRQQRLKAWQPILSPQSVLPLLIFVACIFTPIGIGLIVSATKVQDLTIDYSHCDTKASTTAFEDIPKKYIKYHFKSKVENKPQWRLTENENGEQSCELQFEIPNDIKKSIFIYYKITNFYQNHRRYVQSFDTKQILGEPIKKDDLDTSASPIRSREDKIIYPCGLIANSMFNDTFSQVLSGIDDTEDYNLTNKHISWSIDRHRFKTTKYNASDIVPPPNWMKKYPDGYTDENLPDIHTWEEFQVWMRTAAFPKFYKLTLKNESASLPKGKYQMNIELNYPISLFGGTKSFVLTTNGAIGGRNMSLGVLYLIVAGLCALFGIIFLVKLIFQPRAMGDHTYLNFDDEENEDYEDVHAENTTLREIL [C176A] | decreasing interaction strength |
| MVSLFKRGKAPPLTKEGPTSKKPPNTAFRQQRLKAWQPILSPQSVLPLLIFVACIFTPIGIGLIVSATKVQDLTIDYSHCDTKASTTAFEDIPKKYIKYHFKSKVENKPQWRLTENENGEQSCELQFEIPNDIKKSIFIYYKITNFYQNHRRYVQSFDTKQILGEPIKKDDLDTSCSPIRSREDKIIYPAGLIANSMFNDTFSQVLSGIDDTEDYNLTNKHISWSIDRHRFKTTKYNASDIVPPPNWMKKYPDGYTDENLPDIHTWEEFQVWMRTAAFPKFYKLTLKNESASLPKGKYQMNIELNYPISLFGGTKSFVLTTNGAIGGRNMSLGVLYLIVAGLCALFGIIFLVKLIFQPRAMGDHTYLNFDDEENEDYEDVHAENTTLREIL [C190A] | decreasing interaction strength |

Variants of: B4
Conditions: with atc8_yeast DNF3, Q12674
Chain of atc8_yeast DNF3, Q12674 (Q12674 whole entry): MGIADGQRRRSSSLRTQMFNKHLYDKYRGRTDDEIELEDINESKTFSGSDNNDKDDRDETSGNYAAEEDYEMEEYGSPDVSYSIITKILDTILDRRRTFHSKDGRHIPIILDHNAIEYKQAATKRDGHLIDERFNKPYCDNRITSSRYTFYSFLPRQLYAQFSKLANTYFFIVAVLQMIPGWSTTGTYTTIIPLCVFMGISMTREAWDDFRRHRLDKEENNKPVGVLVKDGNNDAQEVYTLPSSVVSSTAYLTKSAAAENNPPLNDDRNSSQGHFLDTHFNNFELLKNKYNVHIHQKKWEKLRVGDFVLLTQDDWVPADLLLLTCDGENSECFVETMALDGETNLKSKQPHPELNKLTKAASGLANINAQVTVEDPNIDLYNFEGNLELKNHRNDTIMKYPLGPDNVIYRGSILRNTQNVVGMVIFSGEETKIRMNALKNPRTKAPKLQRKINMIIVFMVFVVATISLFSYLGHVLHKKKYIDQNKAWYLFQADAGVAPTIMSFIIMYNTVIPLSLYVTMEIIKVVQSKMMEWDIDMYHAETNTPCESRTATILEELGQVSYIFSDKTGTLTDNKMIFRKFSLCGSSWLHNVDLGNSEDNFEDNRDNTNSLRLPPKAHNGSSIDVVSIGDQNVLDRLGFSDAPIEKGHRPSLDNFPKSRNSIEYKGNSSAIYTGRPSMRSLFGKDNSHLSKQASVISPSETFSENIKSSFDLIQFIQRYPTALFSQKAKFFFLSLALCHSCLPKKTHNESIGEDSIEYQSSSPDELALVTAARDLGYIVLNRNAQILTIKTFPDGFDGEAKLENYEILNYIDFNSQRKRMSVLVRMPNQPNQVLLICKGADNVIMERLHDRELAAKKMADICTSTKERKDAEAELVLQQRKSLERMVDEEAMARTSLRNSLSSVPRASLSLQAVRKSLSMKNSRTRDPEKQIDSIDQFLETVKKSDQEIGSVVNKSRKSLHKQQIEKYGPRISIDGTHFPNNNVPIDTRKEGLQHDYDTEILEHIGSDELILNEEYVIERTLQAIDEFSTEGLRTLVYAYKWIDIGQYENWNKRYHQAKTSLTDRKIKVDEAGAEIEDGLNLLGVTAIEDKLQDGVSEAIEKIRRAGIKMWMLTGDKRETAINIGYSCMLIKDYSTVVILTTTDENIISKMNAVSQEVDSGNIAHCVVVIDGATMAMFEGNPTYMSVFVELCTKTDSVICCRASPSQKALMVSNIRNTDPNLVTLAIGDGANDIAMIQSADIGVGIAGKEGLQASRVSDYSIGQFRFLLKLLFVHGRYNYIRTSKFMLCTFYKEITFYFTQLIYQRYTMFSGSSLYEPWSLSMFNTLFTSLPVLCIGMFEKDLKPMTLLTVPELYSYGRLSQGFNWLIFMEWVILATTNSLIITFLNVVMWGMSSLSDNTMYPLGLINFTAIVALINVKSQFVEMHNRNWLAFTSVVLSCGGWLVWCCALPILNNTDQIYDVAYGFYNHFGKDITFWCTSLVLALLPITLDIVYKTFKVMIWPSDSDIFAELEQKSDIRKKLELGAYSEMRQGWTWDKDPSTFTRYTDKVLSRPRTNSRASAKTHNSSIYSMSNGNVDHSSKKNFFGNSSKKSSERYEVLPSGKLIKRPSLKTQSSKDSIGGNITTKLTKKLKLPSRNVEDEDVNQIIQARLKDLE

| Variant | effect of a mutation on the interaction |
| --- | --- |
| MGLILRWKEKKQLSSKQNAQKSRKPANTSFRQQRLKAWQPILSPQSVLPLLILMACVFAPIGIGLVVSTISVQRLVVNYTECDALAPAKHFETIPSEYVDYHFSKKVAVQPQWMVLTDPELGNQTCRIQFEVPNHIKKSTYVYYRLTNFNQNYREYVQSLDLDQLKGKALIGNDLDPNADPLRTVENKTIFPCGLIANSMFNDTFGTTLTGVNDTADYLLTTKGIAWDTDSHRYGKTEYNASDIVPPPNWAKLFPNGYTDDNIPDLQNWEQFKIWMRTAALPNFYKLAMKNETNGLGKGIYIADIELNYPVRSFYGTKSFVLTTNSIIGAGNEALGIVYLIVAGIATLFAILFLIKVIFKPRPMHDHSYLNFENSDTPFDESSVVSIPLREIL [C179A] | decreasing interaction strength |
